Assay results: the RNAGym collection of RNA variant scans (doi:10.1073/pnas.2313332121)
This sample holds only a part of the variants without activity.

B1: TPR 5TU (parent)
chain: GGAUCUUCUCGAUCUAACAAAAAAGACAAAUCUGCCACAAAGCUUGAGAGCAUCUUCGGAUGCAGAGGCGGCAGCCUUCGGUGGCGCGAUAGCGCCAACGUUCUCAACUAUGACACGCAAAACGCGUGCUCCGUUGAAUGGAGUUUAUCAUG

Variants of: B1
Experiment: polymerase ribozyme fitness, log enrichment relative to wild type (log ratio); higher = more active; in vitro selection for triplet polymerase activity
How it was run: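 PCR was used to build mutant libraries for each subunit of a heterodimeric triplet polymerase ribozyme, which were then transcribed. A single in vitro selection round, in triplicate, used a frozen incubation at −7 °C and recovered extended constructs by gel excision, streptavidin beads and RT-PCR. Fitness is the logarithm of genotype enrichment relative to wild-type enrichment, averaged over replicates with inverse-variance weights. The logarithm is base 2, and after Illumina sequencing only genotypes with ≥10 input reads and ≥1 read per output were kept.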

For GGAUCUUCUCGAUCUAACAUAAAAGACAAAUCUGCCACAAAGCUUGAGAGCAUCUUCGGAUGCAGACGCGGCAGCCUUCGGUGGCGCGAUAGCGCCAACGUUCUCAACUAUGACACGCAAAACGCGUGCUCCGUUGAAUGGAGUUUAUCAUG [A20U G67C], which “polymerase ribozyme fitness (log ratio)” value is on record?
The value was at most -4.2.

For GGAUCUUCUCGAUCUAACAUAAAAGACAAAUCUGCCACAAAGCUUGAGAACAUCUUCGGAUGCAGAGGCGGCAGCCUUCGGUGGUGCGAUAGCGCCAACGUUCUCAACUAUGACACGCAAAACGCGUGCUCCGUUGAAUGGAGUUUAUCAUG [A20U G50A C85U], which “polymerase ribozyme fitness (log ratio)” value is on record?
Its value is -3.83.

Which “polymerase ribozyme fitness (log ratio)” value does the source give for GGAUCUUCUCGAUCUAACAACUAAGACAAAUCUGCCACAAAGCUUGAGAGCAUCUUCGGAUGCAGAGGCGGCAGCCUUCGGUGGCGCGUUACCUCCAACGUUCUCAACUAUGACACGCAAAACGCGUGCUCCGUUGAAUGAAGUUUAUCAUG [A21C A22U A89U G92C G94U G141A] here?
The value was at most -4.2.

For GGAUCUUCUCGAUCUAACAUAAAAGACAAAUCUGCCACAAAGCUUGACAGCAUCUUGGGAUGCAGAGGCGGCAGCCUUCGGUGGCGCGAUAGCGCCAACGUUCUCAACUAUGACACGCAAAACGCGUACUCCGUUGAAUGGAGUUUAUCAUG [A20U G48C C57G G128A], which “polymerase ribozyme fitness (log ratio)” value is on record?
Its value is at most -4.2.

With GGAUCUUCUCGAUCUAACAUAAAAGACAAAUCUGCCACAAAGCUUGAGAGCAUCUUCGGAUGCAGAUGCGGCAGCCUUCGGUGGCGCGAUAGCGCCAACGUUCUCAACUAUGACAGGCAAAACGCGUGCUCCGUUGAAUGGAGUUUAUCAUG [A20U G67U C116G] as the variant, how does the “polymerase ribozyme fitness (log ratio)” value read?
The value was at most -4.2.

For GGAUCUUCUCGAUCUAACAUAAAAGACAAAUCUGCCACAAAGCUUGAGAGCAUCUUCGGAUGCAGAGGCGGCAGCCUUCGGUGGCGUGAUAGCGCCAACGUUCUCAACUAUGACACGCAAAACGCGUGCUCCGUUGAAUGGAGUUUAUCAUG [A20U C87U], which “polymerase ribozyme fitness (log ratio)” value is on record?
Its value is -2.07.

With GGAUCUUCUCGAUCUAACAUAAAAGACAAAUCGGCCACAAAUCUUGAGAGCAUCUUCGGAUGGAGAGGCGACAGCCUUCGGUGGCGCGAUAGCGCCAACGUUCUCAACUAUGGCACGCAAAACGCGUGCUCCGUUGAAUGGAGUUUAUCAUG [A20U U33G G42U C63G G71A A113G] as the variant, how does the “polymerase ribozyme fitness (log ratio)” value read?
The value was at most -4.2.

With GGAUCUUCUCGAUCUAACAUAAAAGACAAAUCUGCCACAAAUCUUGAGAGCAUCUUCGGAUGCAGAGGCGGCAGCCUUCGGUGGCGCGAGAGCGCAAACGUUCUCAACUAUGACACACAAAACGCGUGCUCCGUUGUAUGGAGUUUAUCAUG [A20U G42U U90G C96A G117A A137U] as the variant, how does the “polymerase ribozyme fitness (log ratio)” value read?
Its value is at most -4.2.

Which “polymerase ribozyme fitness (log ratio)” value does the source give for GGAUCUUCUCGAUCUAACAACAAAGACAAAUCUGCCACAAAGCUUGAGAGCAUCUUCGGAUGCAGAGGCGGCAGCCUUCGGUGGCGCGAUAGCGCCAACGUUCUCAACUAUGACACGCAAAACGCGUGCUCCGUUGAAUGGAGUUUAUCAUG [A21C] here?
The value was 0.199.

For GGAUCUUCUCGAUCUAACAUAAAAGACAAAUCUGCCACAAAGCUUGAGAGCAUGUUCGGAUGCAGAGGCGGCAGCCUUCGGUGGCGCGAUAGCGCCAACGUUCUCAACUAUGACACGCAAAACGCGUGCUCCGUUGAAUGGAGUUUAUCAUG [A20U C54G], which “polymerase ribozyme fitness (log ratio)” value is on record?
The value was -2.64.

With GGAUCUUCUCGAUCUAACAUAAAAGACAAAUCUGCCACAAAGCUUGAGAGCAUCUUCGAAUGCAGAGGCGGCAGCCUUCGGUGGCGCGAUAGAGCCAACGUUCUCAACUAUGACACGCAAAACGCGUGCUCCGUUGAAUGGAGUUUAUCAUG [A20U G59A C93A] as the variant, how does the “polymerase ribozyme fitness (log ratio)” value read?
The value was -4.07.

With GGAUCUUCUCGAUCUAACAUAAAAGACAAAUCUGUCACAAAGCUUGAGAGCAUCUUCGGAUGCAGAGGCGGCAGCCUUCGGUGGCGCGAUAGCGACGAAGUUCUUAACUAUGACACGCAAAACGCGUGCUCCGUUGAGUGGAGUUUAUCAUG [A20U C35U C95A A97G C99A C105U A138G] as the variant, how does the “polymerase ribozyme fitness (log ratio)” value read?
The value was at most -4.2.

Which “polymerase ribozyme fitness (log ratio)” value does the source give for GGAUCUUCUCGAUCUAACAUAAAAGACAAAUCCGCCACAAAGCUUGAGAGCAUCUUCGGAUGCAGAGGCGCCAGCCUUCGGUGGCGCGAUAUCGCGAACGUUCUCAACUAUGACACGCUAAACGAGUGCUCCGUUGAAUGGAGUUUAUCAUG [A20U U33C G71C G92U C96G A119U C125A] here?
The value was at most -4.2.

Which “polymerase ribozyme fitness (log ratio)” value does the source give for GGAUCUUCUCGAUCUAACAUAAAAGACAAAUCUGCCACAAAGCUUGAGAGCAUCUUCCGAUGCAGAGGCGGCAGCCUUCGGUGGUGCGAUAGCGCCAUCGUUCUCAACUAUGACACGCAAAACGCGUGUUCCGCUGAAUGGAGUUUAUCAUG [A20U G58C C85U A98U C129U U134C] here?
Its value is -1.85.

With GGAUCUUCUCGAUCUAACAUAAAAGACAAAUCUGCCACAAAGCUUGAUAGCAUCUUCGGAGGCAGAGGCGGCAGCCUUCGGUGGGGCGAUAGCGCCAACGUUCUCAACUAUGACACGCAAAACGCGUGCUCCGUUGAAUGGAGUUUAUCAUG [A20U G48U U61G C85G] as the variant, how does the “polymerase ribozyme fitness (log ratio)” value read?
Its value is at most -4.2.

With GGAUCUUCUCGAUCUAACAACAAUGACAAAUCUGCCACAAAGCUUUAGAGCAUCUUUGGAUGCAGAGGCGGCAGCCUUCGGUGGCGCGAUAGUGCCAACGUUCUCAACUAUGACACGCAAAACGCGUGCUCCGUUGAAUGGAGUUUAUCAUG [A21C A24U G46U C57U C93U] as the variant, how does the “polymerase ribozyme fitness (log ratio)” value read?
Its value is -1.65.

For GGAUCUUCUCGAUCUAACAUAAAAGACAAAUCUGCCACAAAGCUUGAGAGCAUCUUCGGAUGCAGAGGCGGCAGCCUUCGGUGGCGCGAUAGCGCCAACGUUCUCAACUAUGACACGCAAAACGCGUGCUCCGUUGCAUGGAGUUUAUCAUG [A20U A137C], which “polymerase ribozyme fitness (log ratio)” value is on record?
The value was -3.99.

With GGAUCUUCUCGAUCUAACAUAAAAGACAAAUCUGCCACAAAGCUUGAGACCAUCUUCUGAUGCAGAGGCGGCAGCCUUGGGUGUCGCGAGAGCGCCAACGUUCUCAGGUAUGACACGCAAAACGCGUGCUCCGUUGAAUGGAGUUUAUCAUG [A20U G50C G58U C79G G84U U90G A107G C108G] as the variant, how does the “polymerase ribozyme fitness (log ratio)” value read?
Its value is at most -4.2.

With GGAUCUUCUCGAUCUAACAUAAAAGACAAAUCUGCCACAAAGCUUGAGAGCAUCUUCGGAUGCAGAGGCCGCAGCCUUCGGUGGCGCGAUAGGGCCAACGUUCUCAACUAUGACACGCAAAACGCGUGCUCCGUUGAAUGGAGUUUAUCAUG [A20U G70C C93G] as the variant, how does the “polymerase ribozyme fitness (log ratio)” value read?
The value was at most -4.2.
